Experimental data from patent US20230125550A1 (ARCELLX, published 2023).
Positions count from the first letter of the chain named.

B1: SEQ ID NO: 613 (designed binder)
chain: MGSWYEFMGRLEAIDERLQALGGSEAELAWFEHEIAEFEWSLQWYKGKGNPEVEALRFEAGAIPWELWAYRHN
notes: D domain, on phage
B2: SEQ ID NO: 618 (designed binder)
chain: MGSWWEFNARLDAIEDRLMALGGSEAELAYFEDIIASFENILQQYKGKGNPEVEALWYEAYAIEKELNAYRHN
notes: D domain, on phage
B3: SEQ ID NO: 622 (designed binder)
chain: MGSWLEFETRLHAIDERLWALGGSEAELAEFEEHIAWFEEDLQFYKGKGNPEVEALDFEADAIGWELWAYRHN
notes: D domain, on phage
B4: SEQ ID NO: 617 (designed binder)
chain: MGSWDEFAMRLEAIQARLFALGGSEAELAIFEDEIAFFETMLQDYKGKGNPEVEALEYEAAAIEAELGAYRHN
notes: D domain, on phage
B5: SEQ ID NO: 621 (designed binder)
chain: MGSWYEFLARLYAIDERLWALGGSEAELATFEHWIADFEEQLQSYKGKGNPEVEALTDEAVAIGEELSAYRHN
notes: D domain, on phage
B6: SEQ ID NO: 624 (designed binder)
chain: MGSWHEFWQRLEAIEGRLWALGGSEAELADFESLIADFEEQLQEYKGKGNPEVEALMAEAEAIDNELRAYRHN
notes: D domain, on phage
B7: SEQ ID NO: 626 (designed binder)
chain: MGSWYEFENRLFAIEERLWALGGSEAELAWFEYEIANFEWGLQSYKGKGNPEVEALDNEAEAIDIELAAYRHN
notes: D domain, on phage
B8: SEQ ID NO: 611 (designed binder)
chain: MGSWEEFEWRLDAIDERLWALGGSEAELATFEYEIAIFENELQQYKGKGNPEVEALDSEAYAIERELGAYRHN
notes: D domain, on phage
B9: SEQ ID NO: 607 (designed binder)
chain: MGSWYEFEWRLDAIDRRLWALGGSEAELADFEEEIADFEWMLQNYKGKGNPEVEALVDEASAIQTELWAYRHN
notes: D domain, on phage
B10: SEQ ID NO: 600 (designed binder)
chain: MGSWEEFEDRLWAIDGRLYALGGSEAELAWFEQWIATFEEDLQDYKGKGNPEVEALEYEASAIFEELEAYRHN
notes: D domain, on phage
B11: SEQ ID NO: 620 (designed binder)
chain: MGSWNEFVIRLFAIDDRLYALGGSEAELAWFEDEIATFEYELQRYKGKGNPEVEALEYEAEAIVSELFAYRHN
notes: D domain, on phage
B12: SEQ ID NO: 608 (designed binder)
chain: MGSWYEFVYRLRAIDERLDALGGSEAELAMFEFEIAFFEDQLQRYKGKGNPEVEALVDEAQAIDFELFAYRHN
notes: D domain, on phage
B13: SEQ ID NO: 602 (designed binder)
chain: MGSWFEFNDRLDAISERLSALGGSEAELAYFEWQIAVFEKTLQNYKGKGNPEVEALTLEANAIFEELEAYRHN
notes: D domain, on phage
B14: SEQ ID NO: 612 (designed binder)
chain: MGSWYEFFDRLDAIDERLWALGGSEAELAWFEAEIAEFEMELQGYKGKGNPEVEALDVEAHAIEMELFAYRHN
notes: D domain, on phage
B15: SEQ ID NO: 614 (designed binder)
chain: MGSWVEFSNRLDAIWERLQALGGSEAELAYFEWEIAEFEWELQSYKGKGNPEVEALNAEADAIEWELEAYRHN
notes: D domain, on phage
B16: SEQ ID NO: 605 (designed binder)
chain: MGSWEEFNWRLRAIDERLFALGGSEAELAWFEYDIAEFEEQLQVYKGKGNPEVEALRVEAAAIAEELYAYRHN
notes: D domain, on phage
B17: SEQ ID NO: 619 (designed binder)
chain: MGSWIEFWNRLEAIEERLYALGGSEAELAYFEDEIAEFEIYLQQYKGKGNPEVEALKHEAEAINKELMAYRHN
notes: D domain, on phage
B18: SEQ ID NO: 599 (designed binder)
chain: MGSWYEFQERLDAIDSRLWALGGSEAELAWFEYTIAEFEKELQMYKGKGNPEVEALGTEAVAISEELMAYRHN
notes: D domain, on phage
B19: SEQ ID NO: 616 (designed binder)
chain: MGSWWEFKYRLDAICFRLAALGGSEAELASFEDEIAYFEEDLQGYKGKGNPEVEALDYEALAIWDELAAYRHN
notes: D domain, on phage
B20: SEQ ID NO: 601 (designed binder)
chain: MGSWFEFGDRLEAIDERLYALGGSEAELAQFEWWIAEFEHHLQDYKGKGNPEVEALEYEADAIWGELHAYRHN
notes: D domain, on phage
B21: SEQ ID NO: 606 (designed binder)
chain: MGSWWEFEIRLDAIDERLWALGGSEAELAWFEQSIAFFENDLQVYKGKGNPEVEALRWEANAIIEELFAYRHN
notes: D domain, on phage
B22: SEQ ID NO: 603 (designed binder)
chain: MGSWVEFMDRLEAIEERLSALGGSEAELAFFEWEIAEFEEHLQVYKGKGNPEVEALEWEALAITEELAAYRHN
notes: D domain, on phage
B23: SEQ ID NO: 609 (designed binder)
chain: MGSWWEFEDRLYAIDDRLWALGGSEAELAQFEREIAQFEIWLQEYKGKGNPEVEALDDEATAINSELFAYRHN
notes: D domain, on phage
B24: SEQ ID NO: 623 (designed binder)
chain: MGSWFEFETRLEAIDLRLWALGGSEAELATFEDVIAFFEDWLQFYKGKGNPEVEALKMEAWAIGEELHAYRHN
notes: D domain, on phage
B25: SEQ ID NO: 604 (designed binder)
chain: MGSWIEFMDRLWAIDQRLWALGGSEAELAWFEEEIAWFEEELQVYKGKGNPEVEALEWEATAISEELWAYRHN
notes: D domain, on phage
B26: SEQ ID NO: 615 (designed binder)
chain: MGSWEEFHMRLIAIDERLWALGGSEAELAGFEESIAYFESQLQDYKGKGNPEVEALDYEAHAIWRELYAYRHN
notes: D domain, on phage
B27: SEQ ID NO: 625 (designed binder)
chain: MGSWYEFEQRLEAIEWRLGALGGSEAELATFEEDIADFEEWLQEYKGKGNPEVEALQYEAYAIAEELHAYRHN
notes: D domain, on phage
B28: SEQ ID NO: 610 (designed binder)
chain: MGSWDEFEFRLEAIDSRLWALGGSEAELAVFEYEIAQFEFMLQEYKGKGNPEVEALGMEAWAIENELFAYRHN
notes: D domain, on phage
B29: SEQ ID NO 777 (designed binder)
chain: MGSWTEFWHRLEAIDSRLWALGGSEAELAAFEKEIAAFESELQAYKGKGNPEVESLREHAAHIRVWLQAYRHN
B30: SEQ ID NO 758 (designed binder)
chain: B29 chain with T5L, W8Y, E12N, E58D, V65E
B31: SEQ ID NO 749 (designed binder)
chain: B29 chain with T5F, W8Y, H9D, E12N, S16A, S55N, E58V, H62A, V65E
B32: SEQ ID NO 768 (designed binder)
chain: B29 chain with T5S, W8V, H9K, E12D, S16Q, E58V, H62A, V65A
B33: SEQ ID NO 766 (designed binder)
chain: B29 chain with T5F, W8Y, H9E, E12N, S55K, E58A, H62S, V65T
B34: SEQ ID NO 767 (designed binder)
chain: B29 chain with T5I, W8Y, H9W, S16Q, S55D, E58V, H62A, V65W
B35: SEQ ID NO 744 (designed binder)
chain: MGSWVEFSGRLIAIDNRLWALGGSEAELAAFEKEIAAFESELQAYKGKGNPEVEYLRMWAAEIRYILQAYRHN
B36: SEQ ID NO 746 (designed binder)
chain: B35 chain with V5H, S8M, G9E, N16G, M58F, W59V, E62F, Y65D, I66V
B37: SEQ ID NO 742 (designed binder)
chain: B35 chain with V5H, S8I, G9T, I12E, N16Q, M58F, Y65F
B38: SEQ ID NO 745 (designed binder)
chain: B35 chain with S8H, G9H, I12F, N16E, W59V
B39: SEQ ID NO 743 (designed binder)
chain: B35 chain with V5M, S8F, G9D, I12V, N16E, Y65F, I66L
B40: SEQ ID NO 747 (designed binder)
chain: MGSWKEFIQRLDAIHYRLWALGGSEAELAAFEKEIAAFESELQAYKGKGNPEVEYLRFVAAFIRFELQAYRHN
B41: SEQ ID NO 748 (designed binder)
chain: B40 chain with K5S, Q9F, Y16S, W19Q, V59I, F62E, F65L, E66K
B42: SEQ ID NO 741 (designed binder)
chain: MGSWHEFYDRLDAIYFRLWALGGSEAELAAFEKEIAAFESELQAYKGKGNPEVELLRLLAAEIRKELQAYRHN

What follows are binders tested against T1, recombinant human CD123-Fc (human, UniProt P26951 19-305) (assay: phage ELISA, captured CD123-Fc).
T1 construct: not shown: Fc part of CD123-Fc
T1 sequence: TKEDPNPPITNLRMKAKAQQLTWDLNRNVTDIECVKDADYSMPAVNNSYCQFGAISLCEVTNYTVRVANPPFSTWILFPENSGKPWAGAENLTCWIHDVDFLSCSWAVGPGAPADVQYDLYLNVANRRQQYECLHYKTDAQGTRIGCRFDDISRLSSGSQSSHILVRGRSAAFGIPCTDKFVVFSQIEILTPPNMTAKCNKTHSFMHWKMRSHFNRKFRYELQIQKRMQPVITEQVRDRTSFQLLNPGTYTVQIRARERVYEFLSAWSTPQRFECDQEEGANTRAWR
How it was run: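 Phage from BCMA panning colonies were rescued with VCSM13 helper phage and diluted 5× in blocking buffer. Plates coated with anti-human IgG1-Fc captured 5 nM target-Fc or IgG1-Fc, and binding was detected with HRP anti-M13. Ratio = A450 target/A450 IgG1-Fc, averaged over the clone's wells.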
B1 gave an ELISA_avg of 3.5 ratio A450 target/IgG1-Fc.
B2 gave an ELISA_avg of 3.4 ratio A450 target/IgG1-Fc.
In the case of B3, the ELISA_avg is reported as 4.6 ratio A450 target/IgG1-Fc.
B4 was tested, and the ELISA_avg was 3.7 ratio A450 target/IgG1-Fc.
Work on B5 yielded an ELISA_avg of 4.5 ratio A450 target/IgG1-Fc.
B6 was tested, and the ELISA_avg was 7 ratio A450 target/IgG1-Fc.
For B7, the ELISA_avg was 3.3 ratio A450 target/IgG1-Fc.
B8 showed an ELISA_avg of 4.3 ratio A450 target/IgG1-Fc.
Binder B9 has an ELISA_avg of 10 ratio A450 target/IgG1-Fc.
B10 was tested, and the ELISA_avg was 9.4 ratio A450 target/IgG1-Fc.
B11 gave an ELISA_avg of 3.5 ratio A450 target/IgG1-Fc.
For B12, the ELISA_avg was 4.5 ratio A450 target/IgG1-Fc.
For B13, the ELISA_avg was 3.9 ratio A450 target/IgG1-Fc.
B14 gave an ELISA_avg of 3.7 ratio A450 target/IgG1-Fc.
B15 showed an ELISA_avg of 5.1 ratio A450 target/IgG1-Fc.
With B16 the ELISA_avg was 5.4 ratio A450 target/IgG1-Fc.
For B17, the ELISA_avg was 5.2 ratio A450 target/IgG1-Fc.
For B18, the ELISA_avg was 5.5 ratio A450 target/IgG1-Fc.
B19 gave an ELISA_avg of 3.1 ratio A450 target/IgG1-Fc.
Binder B20 has an ELISA_avg of 4.5 ratio A450 target/IgG1-Fc.
In the case of B21, the ELISA_avg is reported as 3.2 ratio A450 target/IgG1-Fc.
For B22, the ELISA_avg was 4 ratio A450 target/IgG1-Fc.
For B23, the ELISA_avg was 5.5 ratio A450 target/IgG1-Fc.
B24 showed an ELISA_avg of 6.6 ratio A450 target/IgG1-Fc.
B25 gave an ELISA_avg of 6.5 ratio A450 target/IgG1-Fc.
Work on B26 yielded an ELISA_avg of 3.9 ratio A450 target/IgG1-Fc.
B27 gave an ELISA_avg of 4.4 ratio A450 target/IgG1-Fc.
B28 was tested, and the ELISA_avg was 3.6 ratio A450 target/IgG1-Fc.

Each binder was assayed against T2, AFP p26 (human, UniProt P02771 381-609) (assay: phage ELISA, A450 target/A450 IgG1-Fc).
T2 construct: The construct used is not described
T2 sequence: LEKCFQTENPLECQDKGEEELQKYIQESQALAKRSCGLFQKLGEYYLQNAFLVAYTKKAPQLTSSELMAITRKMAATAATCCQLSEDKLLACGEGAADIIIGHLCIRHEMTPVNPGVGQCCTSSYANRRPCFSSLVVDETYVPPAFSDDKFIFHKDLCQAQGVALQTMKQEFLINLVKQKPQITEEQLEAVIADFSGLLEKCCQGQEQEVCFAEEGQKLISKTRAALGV
How it was run: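 Individual phagemid colonies picked from panning output were rescued in 96-well format using VCSM13 helper phage. Plates received 1.3 microg/ml goat anti-human IgG1-Fc antibody, followed by 5 nM recombinant human target or IgG1-Fc, and then 50 microl of phage diluted 5× in ELISA blocking buffer. An HRP-conjugated anti-M13 antibody detected binding at 450 nm. For each clone, the ELISA ratio is the absorbance with target divided by that with IgG1-Fc, averaged over every screened well containing the clone.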
B29 gave an ELISA_avg of 13.2 ratio.
Binder B30 has an ELISA_avg of 19.2 ratio.
With B31 the ELISA_avg was 5.92 ratio.
B32 gave an ELISA_avg of 27 ratio.
B33 showed an ELISA_avg of 27.1 ratio.
Binder B34 has an ELISA_avg of 9.4 ratio.
Binder B35 has an ELISA_avg of 5.28 ratio.
B36 showed an ELISA_avg of 17.9 ratio.
B37 showed an ELISA_avg of 16.9 ratio.
Work on B38 yielded an ELISA_avg of 21.4 ratio.
In the case of B39, the ELISA_avg is reported as 18.6 ratio.
B40 was tested, and the ELISA_avg was 18.4 ratio.
With B41 the ELISA_avg was 28.3 ratio.
B42 gave an ELISA_avg of 9.6 ratio.
